Data from patent US11130783B2, “CD40 targeted peptides and uses thereof” (Regents of the University of Minnesota, priority 2018, dated 2021).
“Also recorded” adds a separate entry of the source.

What was measured:
recombinant human CD40 = target: T1, recombinant human CD40 (Homo sapiens, UniProt P25942); assay: ELISA for specificity of peptide binding to CD40; settings: for affinity to bind to CD40 compared to the control Peptide 1: summary of the study; for binding affinity to CD40 by ELISA: FLAG-tagged rhsCD40 1 μg/ml, optical density at 450 nm
T1 construct: probed with FLAG-tagged rhsCD40 (1 μg/ml; Alexis); purchased Alexis
T1 sequence (P25942 21-193 limits assumed): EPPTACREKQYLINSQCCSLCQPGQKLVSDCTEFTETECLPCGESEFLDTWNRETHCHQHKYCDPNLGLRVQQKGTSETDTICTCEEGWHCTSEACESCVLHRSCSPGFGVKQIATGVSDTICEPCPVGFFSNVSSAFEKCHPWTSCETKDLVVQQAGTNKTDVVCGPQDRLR
Method: Binding of the identified peptides to CD40 was analyzed by ELISA. Briefly, plates were coated with […] and then incubated with identified peptides and detected using Flag-tagged rhsCD40.
In order to confirm the specificity of the peptides to interfere with CD40:CD154 interaction, the specificity of peptides 1-7 as listed in table 1 to bind to human […] by ELISA was tested. Briefly, 96 well ELISA (Nunc Immunolon) plates were coated with the peptides in carbonate buffer. The wells are washed and probed with FLAG-tagged rhsCD40 (1 μg/ml; Alexis) and developed with HRP conjugated rabbit anti-FLAG antibody. The plates were washed and the enzymatic activity was determined using 3,3′,5,5′-tetramethyl-benzidine substrate for 15 minutes and the reaction was stopped by the addition of 2 M H2SO4, and optical density was measured at 450 nm, with the correction wavelength set at 620 nm.

CD4, CD8 and CD20 cells = assay: One-way CFSE mixed lymphocyte reaction (MLR), T and B cell proliferation; assay type: cell-based, Rhesus macaques; settings: peptides at 30 μM, 6 days, CFSE-low cells, PBMC from 5 RM
Method: The ability of the CD40 targeting peptides to block CD40-CD40L signaling and inhibit T and B cell proliferation was assessed in a one-way CFSE-MLR. Each of the FIGS. 3A-3E show results of CFSE-MLR performed on PBMC obtained from a different Rhesus monkey. […] The levels of T cell and B cell proliferation was 35-46% in all the 5 animals and for sake clarity was capped at 25% in the figure for better visualization.
In order to determine the functional effect of co-stimulation blockade with peptides targeting CD40, one-way mixed lymphocyte reactions (MLR) was performed. CFSE-labeled PBMC from 5 different RM were stimulated with irradiated PBMC for 6 days. Stimulation with PHA was used as positive control. […] The cells were incubated in the presence of peptides at 30 μM. Following stimulation, PBMC were stained with antibodies specific for CD4, CD8 and CD20 and proliferating cells were quantitated by determining the frequency of CFSE-low CD4, CD8 and CD20 cells. Stained cells were acquired on a 3-laser BD Canto II instrument (BD Bioscience). A minimum of 200,000 events were acquired with FACSDIVA 6.1.3. FACS analysis was performed with FlowJo Version 10 software.

B cells = assay: Peptide blocking of B cell activation by recombinant hCD40L (MHC class II expression); assay type: cell-based, Rhesus macaques; settings: peptides at 30 μM, pre-incubation then recombinant hCD40L
Method: The ability of the newly identified peptides to block B cell activation by CD40L was analyzed in a peptide blocking study. Briefly, B cells were pre-incubated with newly identified peptides for 30 minutes before stimulation with rhCD40L. Activation of the B cells was analyzed by measuring the expression levels of MHC class II molecules on the cell surface by flow cytometry.
The ability of CD40-binding peptides 1-7 as listed in Table 1 to block B cell activation was assessed by analyzing the expression of MHC class II molecules on the B cell when subsequently incubated in the presence of recombinant hCD40L. Briefly, B cells were purified from 3 RM PBMC by magnetic sorting. B cells were incubated with peptides at 30 μM for 15 minutes at 37° C., then activated for 30 minutes with recombinant hCD40L, and then analyzed for expression of MHC class II by staining the cells with specific antibody. Stained cells were acquired on a 3-laser BD Canto II instrument (BD Bioscience). A minimum of 200,000 events were acquired with FACSDIVA 6.1.3. FACS analysis was performed with FlowJo Version 10 software.

[1] = target: T2, CD40 on mononuclear cells (Macaca mulatta, UniProt A0ACM8QRX8); assay: Binding of fluorochrome tagged CD40 targeting peptides to PBMC by flow cytometry; parameters: species or system Rhesus macaques; settings: 5 μM fluorochrome tagged peptide, 30 minutes at 4° C.
T2 construct: peripheral blood mononuclear cells (PBMC) purified from 2 Rhesus macaques (RM); endogenous in cells; host or cells: PBMC from Rhesus macaques
T2 sequence (A0ACM8QRX8 21-278): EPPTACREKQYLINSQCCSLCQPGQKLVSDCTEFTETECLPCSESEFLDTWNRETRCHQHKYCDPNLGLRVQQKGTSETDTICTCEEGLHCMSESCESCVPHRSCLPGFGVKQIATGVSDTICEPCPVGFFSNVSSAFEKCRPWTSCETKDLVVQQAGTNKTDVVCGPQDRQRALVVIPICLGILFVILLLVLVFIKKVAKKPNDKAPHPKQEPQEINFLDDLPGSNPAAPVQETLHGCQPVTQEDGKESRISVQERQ
Method: Binding of the CD40 targeting peptides was analyzed by incubating 5 μM of various fluorochrome tagged CD40 interacting peptides with PBMC from rhesus monkeys for 30 minutes at 4° C. and analyzed by flow cytometry.
In order to screen the ability of the cyclic peptides to bind to CD40, peripheral blood mononuclear cells (PBMC) purified from 2 Rhesus macaques (RM) were incubated with 5 μM of fluorochrome tagged CD40 interacting peptides, Peptide 1-7 listed in Table 1 for 30 minutes at 4° C. The cells were washed 3× in PBS and analyzed by flow cytometry. Stained cells were acquired on a 3-laser BD Canto II instrument (BD Bioscience). A minimum of 200,000 events were acquired with FACSDIVA 6.1.3. Mean fluorescence intensity of the peptide binding to the cells were determined using FlowJo 10.1. software (Tree Star; Ashland, OR, USA). […] 1-7 bind to the PBMC but at various intensities, confirming the ability of the synthetic peptides to bind to CD40 on mononuclear cells.

| Sequence | affinity to bind to CD40 compared to the control Peptide 1 (recombinant human CD40) | suppression of T and B cell (CD4, CD8, CD20) proliferation (CD4, CD8 and CD20 cells) | ability to block B cell activation (MHC class II expression) (B cells) | binding affinity to CD40 by ELISA (recombinant human CD40) | binding to PBMC / mononuclear cells (mean fluorescence intensity) [1] | suppression of T and B cell (CD4, CD8, CD20) proliferation (CD4, CD8 and CD20 cells; listed as Peptide#2) | suppression of T and B cell (CD4, CD8, CD20) proliferation (CD4, CD8 and CD20 cells; listed as Peptide #3) |
| --- | --- | --- | --- | --- | --- | --- | --- |
| LVNWADKAFYTTSNN [Peptide 5] | higher affinity | complete abrogation of T and B cell proliferation | complete abrogation of T and B cell proliferation as well as activation of B cells |  |  |  |  |
| VLNWADKAYFTMSQN [Peptide 4] |  |  |  | lowest binding affinity |  |  |  |
| VLQWAEKGYYTMSNN [Peptide 1, reference compound] |  |  |  | high binding affinity | high binding affinity |  |  |
| VLQWAERGFYTTSNN [Peptide 2] | higher affinity | higher efficacy compared to the other peptides; also recorded: complete abrogation of T and B cell proliferation | complete abrogation of T and B cell proliferation as well as activation of B cells | specific binding to human CD40 |  | inhibited T and B cell proliferation significantly better than the CD40 targeting peptide identified earlier |  |
| VVQWAEKGFFTMSNN [Peptide 3] | higher affinity | higher efficacy compared to the other peptides; also recorded: complete abrogation of T and B cell proliferation | complete abrogation of T and B cell proliferation as well as activation of B cells | specific binding to human CD40 | high binding affinity |  | inhibited T and B cell proliferation significantly better than the CD40 targeting peptide identified earlier |
| VVQWAEKGYYTMSQN [Peptide 7] |  |  |  | specific binding to human CD40 | least binding affinity |  |  |
